One block for each molecule: values may come before it.
Columns and labels:
[1] = target: POB1 phospho-peptide 347KTHSRASpSLDLNKVF361 (human); assay: peptide or protein array; SPOT peptides on a cellulose membrane; GST fusion proteins (10 micrograms/ml) in PBS/BSA 5%; anti-GST antibody, peroxidase labeled secondary antibody, chemiluminescence in arbitrary units
[2] = target: POB1 fifteenmer peptide 338-352 with Pro345 replaced by alanine (human); assay: as above
[3] = target: POB1 fifteenmer peptide 338-352 with Pro343 replaced by alanine (human); assay: as above
[4] = target: GST-SH3 carboxy-terminal of Grb2; assay: pull-down; GST or GST fusion proteins (100 μg) adsorbed to glutathione-sepharose 4B beads, two hours at 4°C with 1 mg of HEK293 cellular extract in JS lysis buffer (50 mM Hepes, 150 mM NaCl, 1% Triton-X100); washed three times in ice-cold PBS; Western blot
[5] = target: T1, GST-SH3 of Amphiphysin II (UniProt O00499 520-593); assay: as above
T1 construct: Amphiphysin II, SH3 domain; cloned into the SalI and BglII sites of pYEX (modified pGEX-2TK); also called AmphIISH3; GST-Amphiphysin II SH3; source: expressed in bacteria; on glutathione-Sepharose 4B beads (pull-down) or purified (peptide arrays)
T1 sequence (looked up): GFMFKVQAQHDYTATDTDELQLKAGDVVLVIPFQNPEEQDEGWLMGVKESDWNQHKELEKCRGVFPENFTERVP

14-3-3 sigma = 14-3-3 sigma (UniProt P31947); assay: SPOT peptide array, GST-14-3-3 sigma overlay
[6] = target: POB1 fifteenmer peptide 338-352 with proline 339 replaced by alanine (human); assay: peptide or protein array; SPOT peptides on a cellulose membrane; GST fusion proteins (10 micrograms/ml) in PBS/BSA 5%; anti-GST antibody, peroxidase labeled secondary antibody, chemiluminescence in arbitrary units
[7] = target: T1, GST-SH3 of Amphiphysin II; assay: as above; details: both partners purified

signal intensity (arbitrary units (a.u.)) [1]: 8500
Molecule: GST-14-3-3 sigma (from UniProt P31947 1-248) (natural protein)

percent of the binding to the unmutated peptide [2]: 30% | percent of the binding to the unmutated peptide [3]: 30%
Molecule: GST-SH3 carboxy-terminal of Grb2 (domain or fragment)

percent of the input bound [4]: 4% | percent of the input bound [5]: 25%
Molecule: Myc-tagged POB1 (full length) (natural protein)

other: spot intensity (14-3-3 sigma; reference: unphosphorylated peptide (No. 232), sites S322): none in both; reference 1400
Molecule: POB1/REPS2 15-mer centred on Ser322 (from UniProt Q8NFH8) pS322 peptide (No. 196)

other: spot intensity (14-3-3 sigma; reference: unphosphorylated peptide (No. 238), sites S354): gained; reference 991
Molecule: POB1/REPS2 347-361 (from UniProt Q8NFH8) pS354 peptide

percent of the binding to the unmutated peptide [6]: 31%
B1: GST-SH3 of Amphiphysin II (domain or fragment)
chain: GFMFKVQAQHDYTATDTDELQLKAGDVVLVIPFQNPEEQDEGWLMGVKESDWNQHKELEKCRGVFPENFTERVP

binding result [7]: binds
B2: POB1 fifteenmer peptide 338PPTPPPRPQKTHSRA352 (peptide)
peptide: PPTPPPRPQKTHSRA
notes: numbers count on: isoform 2, Q8NFH8-2; source: SPOT synthesis on a cellulose membrane

— PMC2494995, “The central proline rich region of POB1/REPS2 plays a regulatory role in epidermal growth factor receptor endocytosis by binding to 14-3-3 and SH3 domain-containing proteins” (BMC Biochemistry, 2008)
